In the RNAGym collection of RNA variant scans (doi:10.7554/elife.90254):

B1: LINE1-full (parent)
chain: UACGUAGGUGGUUUUCCCCUGAUAGUGCUAAGGGGGCCUGGAAGUUUGGACUGGGCAGAGCUCAACACAGCGUGGCAAAGUGGCUGUGGCUAGACUGCCUCUCUGGAUUCCUCGUCACUCAGCAGGGCAUCUCUGAGAGAAAUGCC

Variants of: B1
Test: self-cleavage, relative activity (ratio to wild type); higher = more cleavage; in vitro, sequencing; the parent is a self-cleaving ribozyme

| Variant | self-cleavage |
| --- | --- |
| UACGUAGGUGGUUUUCCCCUGAUAGUGCUAAGGGGGCCUGGAAGUUUGGACUGGGCAGAGCUCAACACAGCGUGGCAAAGUGGCUGUGGCUAGACUGCCUCUCUGGAUUCCUCGUCUCUCAGCAGGGCAUCUCUGACAGAAAUGCC [A117U G137C] | 2.13 |
| UACGUAGGUGGUUUUCCCCUGAUAGUGCUAAGGGGGCCUGGAAGUUUGGACUGGGCAGAGCUCAACACAGCGUGGCAAAGUGGCUGUGGCUAGACUGCCUCUCUGGAUUCCUCGUCUCUCAGUAGGGCAUCUCUGAGAGAAAUGCC [A117U C123U] | 0.78 |
| UACGUAGGUGGUUUUCCCCUGAUAGUGCUAAGGGGGCCUGGAAGUUUGGACUGGGCAGAGCUCAACACAGCGUGGCAAAGUGGCUGUGGCUAGACUGCCUCUCUGGAUUCCUCGUCUCUCAGCAGUGCAUCUCUGAGAGAAAUGCC [A117U G126U] | 1.11 |
| UACGUAGGUGGUUUUCCCCUGAUAGUGCUAAGGGGGCCUGGAAGUUUGGACUGGGCAGAGCUCAACACAGCGUGGCAAAGUGGCUGUGGCUAGACUGCCUCUCUGGAUUCCUCGUCUCUCAGCAGGGCAUCACUGAGAGAAAUGCC [A117U U132A] | 1.32 |
| UACGUAGGUGGUUUUCCCCUGAUAGUGCUAAGGGGGCCUGGAAGUUUGGACUGGGCAGAGCUCAACACAGCGUGGCAAAGUGGCUGUGGCUAGACUGCCUCUCUGGAUUCCUCGUCAUUCAGCAGGGCGUCUCUGAGAGAAAUGCC [C118U A129G] | 1.81 |
| UACGUAGGUGGUUUUCCCCUGAUAGUGCUAAGGGGGCCUGGAAGUUUGGACUGGGCAGAGCUCAACACAGCGUGGCAAAGUGGCUGUGGCUAGACUGCCUCUCUGGAUUCCUCGUCAAUCAGCAGGGCAUCUCUGAGAGAAGUGCC [C118A A142G] | 1.41 |
| UACGUAGGUGGUUUUCCCCUGAUAGUGCUAAGGGGGCCUGGAAGUUUGGACUGGGCAGAGCUCAACACAGCGUGGCAAAGUGGCUGUGGCUAGACUGCCUCUCUGGAUUCCUCGUCAAUCAGCAGGGCAUCCCUGAGAGAAAUGCC [C118A U132C] | 1 |
| UACGUAGGUGGUUUUCCCCUGAUAGUGCUAAGGGGGCCUGGAAGUUUGGACUGGGCAGAGCUCAACACAGCGUGGCAAAGUGGCUGUGGCUAGACUGCCUCUCUGGAUUCCUCGUCUCUCAGCAGGGCAUCUCUGAGAGAAAAGCC [A117U U143A] | 1.23 |
| UACGUAGGUGGUUUUCCCCUGAUAGUGCUAAGGGGGCCUGGAAGUUUGGACUGGGCAGAGCUCAACACAGCGUGGCAAAGUGGCUGUGGCUAGACUGCCUCUCUGGAUUCCUCGUCUCUCAGCAGGGCAUUUCUGAGAGAAAUGCC [A117U C131U] | 1.21 |
| UACGUAGGUGGUUUUCCCCUGAUAGUGCUAAGGGGGCCUGGAAGUUUGGACUGGGCAGAGCUCAACACAGCGUGGCAAAGUGGCUGUGGCUAGACUGCCUCUCUGGAUUCCUCGUCAUUCAGCUGGGCAUCUCUGAGAGAAAUGCC [C118U A124U] | 1.04 |
| UACGUAGGUGGUUUUCCCCUGAUAGUGCUAAGGGGGCCUGGAAGUUUGGACUGGGCAGAGCUCAACACAGCGUGGCAAAGUGGCUGUGGCUAGACUGCCUCUCUGGAUUCCUCGUCAAUCAGCAGGGCGUCUCUGAGAGAAAUGCC [C118A A129G] | 1.1 |
| UACGUAGGUGGUUUUCCCCUGAUAGUGCUAAGGGGGCCUGGAAGUUUGGACUGGGCAGAGCUCAACACAGCGUGGCAAAGUGGCUGUGGCUAGACUGCCUCUCUGGAUUCCUCGUCAGUCAGCAGGGCAUCACUGAGAGAAAUGCC [C118G U132A] | 1.21 |
| UACGUAGGUGGUUUUCCCCUGAUAGUGCUAAGGGGGCCUGGAAGUUUGGACUGGGCAGAGCUCAACACAGCGUGGCAAAGUGGCUGUGGCUAGACUGCCUCUCUGGAUUCCUCGUCAUUCGGCAGGGCAUCUCUGAGAGAAAUGCC [C118U A121G] | 1.58 |
| UACGUAGGUGGUUUUCCCCUGAUAGUGCUAAGGGGGCCUGGAAGUUUGGACUGGGCAGAGCUCAACACAGCGUGGCAAAGUGGCUGUGGCUAGACUGCCUCUCUGGAUUCCUCGUCAAUCAGCAUGGCAUCUCUGAGAGAAAUGCC [C118A G125U] | 1.03 |
| UACGUAGGUGGUUUUCCCCUGAUAGUGCUAAGGGGGCCUGGAAGUUUGGACUGGGCAGAGCUCAACACAGCGUGGCAAAGUGGCUGUGGCUAGACUGCCUCUCUGGAUUCCUCGUCUCUCAGCAGGGCAACUCUGAGAGAAAUGCC [A117U U130A] | 1.55 |
| UACGUAGGUGGUUUUCCCCUGAUAGUGCUAAGGGGGCCUGGAAGUUUGGACUGGGCAGAGCUCAACACAGCGUGGCAAAGUGGCUGUGGCUAGACUGCCUCUCUGGAUUCCUCGUCUCUCAGCAGGGCACCUCUGAGAGAAAUGCC [A117U U130C] | 1.58 |
| UACGUAGGUGGUUUUCCCCUGAUAGUGCUAAGGGGGCCUGGAAGUUUGGACUGGGCAGAGCUCAACACAGCGUGGCAAAGUGGCUGUGGCUAGACUGCCUCUCUGGAUUCCUCGUCAAUCAGCAGGGCAUCUCUGAGUGAAAUGCC [C118A A138U] | 1.47 |
| UACGUAGGUGGUUUUCCCCUGAUAGUGCUAAGGGGGCCUGGAAGUUUGGACUGGGCAGAGCUCAACACAGCGUGGCAAAGUGGCUGUGGCUAGACUGCCUCUCUGGAUUCCUCGUCAUUCAGCAGGGCAUCUCUGAGAGAGAUGCC [C118U A141G] | 1.8 |
| UACGUAGGUGGUUUUCCCCUGAUAGUGCUAAGGGGGCCUGGAAGUUUGGACUGGGCAGAGCUCAACACAGCGUGGCAAAGUGGCUGUGGCUAGACUGCCUCUCUGGAUUCCUCGUCUCUCAGCAGGGCAUCUCUGAGAGAAAUGCG [A117U C146G] | 0.92 |
| UACGUAGGUGGUUUUCCCCUGAUAGUGCUAAGGGGGCCUGGAAGUUUGGACUGGGCAGAGCUCAACACAGCGUGGCAAAGUGGCUGUGGCUAGACUGCCUCUCUGGAUUCCUCGUCUCACAGCAGGGCAUCUCUGAGAGAAAUGCC [A117U U119A] | 0.99 |
